Biological target: the molecule itself
Experiment: X-ray crystal structure; crystal lattice contact between symmetry-related molecules

B1: human soluble adenylate cyclase catalytic domain, construct solAC-2056 (M1-V469 with non-cleavable C-terminal His6 tag) (enzyme)
chain: MNTPKEEFQDWPIVRIAAHLPDLIVYGHFSPERPFMDYFDGVLMFVDISGFTAMTEKFSSAMYMDRGAEQLVEILNYHISAIVEKVLIFGGDILKFAGDALLALWRVERKQLKNIITVVIKCSLEIHGLFETQEWEEGLDIRVKIGLAAGHISMLVFGDETHSHFLVIGQAVDDVRLAQNMAQMNDVILSPNCWQLCDRSMIEIESVPDQRAVKVNFLKPPPNFNFDEFFTKCTTFMHYYPSGEHKNLLRLACTLKPDPELEMSLQKYVMESILKQIDNKQLQGYLSELRPVTIVFVNLMFEDQDKAEEIGPAIQDAYMHITSVLKIFQGQINKVFMFDKGCSFLCVFGFPGEKVPDELTHALECAMDIFDFCSQVHKIQTVSIGVASGIVFCGIVGHTVRHEYTVIGQKVNLAARMMMYYPGIVTCDSVTYNGSNLPAYFFKELPKKVMKGVADSGPLYQYWGRTEKVHHHHHH
modifications: possible acetylation of the N-terminus at Met1 (electron density peak, not modelled)
notes: Expressed in Hi 5 insect cells and crystallised in space group P63; The protein-protein contact recorded is between symmetry-related copies of this molecule in the crystal; also called construct 2056; solAC catalytic domain
  binding result: binds
